# Laboratory results published in US20120321636A1 (UCB, published 2012).
# B1: BMP-6 (ligand, UniProt P22004 382-513, looked up)
# chain: QQSRNRSTQSQDVARVSSASDYNSSELKTACRKHELYVSFQDLGWQDWIIAPKGYAANYCDGECSFPLNAHMNATNHAIVQTLVHLMNPEYVPKPCCAPTKLNAISVLYFDDNSNVILKKYRNMVVRACGCH
# notes: also called bone morphogenic protein 6
# B2: BMP receptor II-FC fusion protein (Fc fusion, not shown: a dimerising Fc or GST; small tags and cut ends)
# chain: SQNQERLCAFKDPYQQDLGIGESRISHENGTILCSKGSTCYGLWEKSKGDINLVKQGCWSHIGDPQECHYEECVVTTTPPSIQNGTYRFCCCSTDLCNVNFTENFPPPDTTPLSPPHSFNRDET
# notes: also called BMPR-II
# B3: DAN (ligand)
# chain: AAPPPINKLALFPDKSAWCEAKNITQIVGHSGCEAKSIQNRACLGQCFSYSVPNTFPQSTESLVHCDSCMPAQSMWEIVTLECPGHEEVPRVDKLVEKILHCSCQACGKEPSHEGLSVYVQGEDGPGSQPGTHPHPHPHPHPGGQTPEPEDPPGAPHTEEEGAED
# How the values were obtained:
# BMP-6 [1] = molecular target: B1; assay: ELISA-based competition: receptor-Fc against coated sclerostin for BMP-6 (11 nM)
# BMP-6 [2] = molecular target: B1; assay: ELISA-based competition: 10-fold molar excess of receptor-Fc against coated sclerostin for BMP-6
# sclerostin = molecular target: T1, sclerostin (Homo sapiens (Human), UniProt Q9BQB4 24-213); assay: ELISA, BMP-6 on a sclerostin-coated surface (300 ng/well)
# T1 construct: also called SOST; Beer
# T1 sequence: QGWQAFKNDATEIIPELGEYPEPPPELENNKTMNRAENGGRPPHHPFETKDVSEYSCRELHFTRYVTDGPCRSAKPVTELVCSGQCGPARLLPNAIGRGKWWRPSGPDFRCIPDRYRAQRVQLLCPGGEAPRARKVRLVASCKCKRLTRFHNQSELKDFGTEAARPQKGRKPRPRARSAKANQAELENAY
# Method: (§1) A 10-fold molar excess of the BMP receptor was sufficient to reduce binding of sclerostin to BMP-6 by approximately 50%. This competition was also observed with a BMP receptor II-FC fusion protein (IC₅₀=36 nM) and DAN (IC₅₀=43 nM).
# BMP-6 [3] = molecular target: B1; assay: ELISA-based competition: receptor-Fc against coated sclerostin for BMP-6
# Method: as §1
# BMP-6 [4] = molecular target: B1; assay: ELISA-based competition: DAN against coated sclerostin for BMP-6
molecule,measurement,setting,value
BMP receptor IA (FC fusion construct),IC50,BMP-6 [1],0.114 µM
same,percent reduction of sclerostin binding to BMP-6 at 10-fold molar excess,BMP-6 [2],50%
B1,Kd,sclerostin,0.0034 µM
B2,IC50,BMP-6 [3],0.036 µM
B3,IC50,BMP-6 [4],0.043 µM
